{
  "source": "patent US20250281611A1",
  "about": "(BIOSCEPTRE AUST, published 2025)",
  "key": {"nfP2X7 CAR 1 [1]": {"biological_target": "T1, nfP2X7 CAR 1", "T1 construct": "Expressed on T cells with truncated EGFR as marker gene; also called anti-nfP2X7 receptor CAR 1; nfP2X7 targeted CAR on EGFR+ T cells", "experiment": "flow cytometry, CAR T cells, anti-His-FITC, EGFR+ MFI over background 0.4", "experimental": "(§1) nfP2X₇ CAR T cells were incubated with different BRiDGE variants at saturating concentrations. […] The MFI intensity correlates with the number of secondary bound antibodies bound to the BRiDGEs that are only detected if they are bound to the CAR T cells. EGFR was used as a marker gene to detect the CAR expression. Thus, the EGFR+ T cell population was defined as the CAR expressing cells and the EGFR− T cell population was defined as the CAR negative subset. MFI: median fluorescence intensity. EGFR: epidermal growth factor receptor. BLItz: Bio-Layer interferometry (BLI) technology using HIS-tag identification tips. HIS-tag MFI Ratio: relative index that is calculated by the testing condition MFI divided by the control MFI, which corresponds to the MFI measured on EGFR+ T cells (defined as CAR positive cells) divided by the MFI measured on the EGFR− T cells (defined as CAR negative cells). […] The higher the MFIR, the stronger the binding."}, "CD33 [2]": {"biological_target": "T2, CD33 (UniProt P20138 18-364, limits assumed)", "T2 construct": "whole, on cells; also called Siglec-3; CD33 on MOLM-13 cells", "T2 sequence (P20138 18-364 limits assumed)": "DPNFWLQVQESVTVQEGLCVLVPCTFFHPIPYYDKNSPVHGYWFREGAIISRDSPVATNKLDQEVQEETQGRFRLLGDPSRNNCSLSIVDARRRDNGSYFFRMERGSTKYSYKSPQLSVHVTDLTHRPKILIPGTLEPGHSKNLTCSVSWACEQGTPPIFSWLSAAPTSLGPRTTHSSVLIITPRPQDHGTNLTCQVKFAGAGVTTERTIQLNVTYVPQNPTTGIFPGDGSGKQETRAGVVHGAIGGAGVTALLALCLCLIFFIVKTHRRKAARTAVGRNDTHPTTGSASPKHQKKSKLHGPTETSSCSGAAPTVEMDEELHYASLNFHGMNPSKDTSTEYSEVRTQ", "experiment": "flow cytometry, MOLM-13 cells, anti-His-FITC detection", "experimental": "(§2) MOLM-13 cells were incubated with different CD33 BRIDGE variants at saturating concentrations. […] The MFI intensity correlates with the number of secondary antibodies bound to the CD33 BRIDGE variants that are only detected if they are bound to the MOLM-13 cells. MFI: median fluorescence intensity. BLItz: Bio-Layer interferometry (BLI) technology using HIS-tag identification tips. […] The higher the MFIR, the stronger the binding."}, "CD33 [3]": {"biological_target": "T2, CD33", "experiment": "flow cytometry, MOLM-13 cells, anti-His-FITC detection, ratio to no bridge", "experimental": "as §2"}, "nfP2X7 CAR 1 [4]": {"biological_target": "T1, nfP2X7 CAR 1", "experiment": "flow cytometry, nfP2X7 CAR T cells (EGFR+), anti-His-FITC detection", "experimental": "as §1"}, "nfP2X7 CAR 1 [5]": {"biological_target": "T1, nfP2X7 CAR 1", "experiment": "flow cytometry, CAR T cells, anti-His-FITC, EGFR+ over EGFR- cells", "experimental": "as §1"}},
  "data": [
    {"binder": "CD33 BRIDGE variant B23 (Fab, Lintuzumab-based Fab bridging molecule) light: DFPGHNYTTRNILPGLNITSTFHKTSGSGKGSEPKSSDKTHTDIQMTQSPSSLSASVGDRVTITCRASESVDNYGISFMNWFQQKPGKAPKLLIYAASNQGSGVPSRFSGSGSGTDFTLTISSLQPDDFATYYCQQSKEVPWTFGQGTKVEIKRTVAAPSVFIFPPSDEQLKSGTASVVCLLNNFYPREAKVQWKVDNALQSGNSQESVTEQDSKDSTYSLSSTLTLSKADYEKHKVYACEVTHQGLSSPVTKSFNRGECHHHHHH heavy: QVQLVQSGAEVKKPGSSVKVSCKASGYTFTDYNMHWVRQAPGQGLEWIGYIYPYNGGTGYNQKFKSKATITADESTNTAYMELSSLRSEDTAVYYCARGRPAMDYWGQGTLVTVSSASTKGPSVFPLAPSSKSTSGGTAALGCLVKDYFPEPVTVSWNSGALTSGVHTFPAVLQSSGLYSLSSVVTVPSSSLGTQTYICNVNHKPSNTKVDKKVEPKSCHHHHHH", "values": [
      {"measurement": "HisTag MFI Ratio (background 0.4)", "setting": "nfP2X7 CAR 1 [1]", "result": 4.3},
      {"measurement": "MFI HisTag FITC", "setting": "CD33 [2]", "result": 6.82},
      {"measurement": "MFIR HisTag FITC", "setting": "CD33 [3]", "result": 10.2},
      {"measurement": "MFI HisTag FITC in EGFR+ Population", "setting": "nfP2X7 CAR 1 [4]", "result": 1.71},
      {"measurement": "HisTag MFI Ratio of EGFR+/EGFR-", "setting": "nfP2X7 CAR 1 [5]", "result": 3.4}
    ]},
    {"binder": "CD33 BRIDGE variant B24 (Fab, Lintuzumab-based Fab bridging molecule) light: DFPGHNYTTRNILPGLNITSTFHKTSGSGKGGGGSEPKSSDKTHTDIQMTQSPSSLSASVGDRVTITCRASESVDNYGISFMNWFQQKPGKAPKLLIYAASNQGSGVPSRFSGSGSGTDFTLTISSLQPDDFATYYCQQSKEVPWTFGQGTKVEIKRTVAAPSVFIFPPSDEQLKSGTASVVCLLNNFYPREAKVQWKVDNALQSGNSQESVTEQDSKDSTYSLSSTLTLSKADYEKHKVYACEVTHQGLSSPVTKSFNRGECHHHHHH heavy: QVQLVQSGAEVKKPGSSVKVSCKASGYTFTDYNMHWVRQAPGQGLEWIGYIYPYNGGTGYNQKFKSKATITADESTNTAYMELSSLRSEDTAVYYCARGRPAMDYWGQGTLVTVSSASTKGPSVFPLAPSSKSTSGGTAALGCLVKDYFPEPVTVSWNSGALTSGVHTFPAVLQSSGLYSLSSVVTVPSSSLGTQTYICNVNHKPSNTKVDKKVEPKSCHHHHHH", "values": [
      {"measurement": "HisTag MFI Ratio (background 0.4)", "setting": "nfP2X7 CAR 1 [1]", "result": 4.6},
      {"measurement": "MFI HisTag FITC", "setting": "CD33 [2]", "result": 6.25},
      {"measurement": "MFIR HisTag FITC", "setting": "CD33 [3]", "result": 9.33},
      {"measurement": "MFI HisTag FITC in EGFR+ Population", "setting": "nfP2X7 CAR 1 [4]", "result": 1.82},
      {"measurement": "HisTag MFI Ratio of EGFR+/EGFR-", "setting": "nfP2X7 CAR 1 [5]", "result": 3.5}
    ]},
    {"binder": "CD33 BRIDGE variant B29 (Fab, Lintuzumab-based Fab bridging molecule) light: DFPGHNYTTRNILPGLNITSTFHKTSGSGKGSEPKSSDKTHTGSDIQMTQSPSSLSASVGDRVTITCRASESVDNYGISFMNWFQQKPGKAPKLLIYAASNQGSGVPSRFSGSGSGTDFTLTISSLQPDDFATYYCQQSKEVPWTFGQGTKVEIKRTVAAPSVFIFPPSDEQLKSGTASVVCLLNNFYPREAKVQWKVDNALQSGNSQESVTEQDSKDSTYSLSSTLTLSKADYEKHKVYACEVTHQGLSSPVTKSFNRGECHHHHHH heavy: QVQLVQSGAEVKKPGSSVKVSCKASGYTFTDYNMHWVRQAPGQGLEWIGYIYPYNGGTGYNQKFKSKATITADESTNTAYMELSSLRSEDTAVYYCARGRPAMDYWGQGTLVTVSSASTKGPSVFPLAPSSKSTSGGTAALGCLVKDYFPEPVTVSWNSGALTSGVHTFPAVLQSSGLYSLSSVVTVPSSSLGTQTYICNVNHKPSNTKVDKKVEPKSCHHHHHH", "values": [
      {"measurement": "HisTag MFI Ratio (background 0.4)", "setting": "nfP2X7 CAR 1 [1]", "result": 4.3},
      {"measurement": "MFI HisTag FITC", "setting": "CD33 [2]", "result": 5.38},
      {"measurement": "MFIR HisTag FITC", "setting": "CD33 [3]", "result": 8.03},
      {"measurement": "MFI HisTag FITC in EGFR+ Population", "setting": "nfP2X7 CAR 1 [4]", "result": 1.73},
      {"measurement": "HisTag MFI Ratio of EGFR+/EGFR-", "setting": "nfP2X7 CAR 1 [5]", "result": 3.4}
    ]},
    {"binder": "CD33 BRIDGE variant B27 (Fab, Lintuzumab-based Fab bridging molecule) light: DFPGHNYTTRNILPGLNITSGGGGSEPKSSDKTHTGSDIQMTQSPSSLSASVGDRVTITCRASESVDNYGISFMNWFQQKPGKAPKLLIYAASNQGSGVPSRFSGSGSGTDFTLTISSLQPDDFATYYCQQSKEVPWTFGQGTKVEIKRTVAAPSVFIFPPSDEQLKSGTASVVCLLNNFYPREAKVQWKVDNALQSGNSQESVTEQDSKDSTYSLSSTLTLSKADYEKHKVYACEVTHQGLSSPVTKSFNRGECHHHHHH heavy: QVQLVQSGAEVKKPGSSVKVSCKASGYTFTDYNMHWVRQAPGQGLEWIGYIYPYNGGTGYNQKFKSKATITADESTNTAYMELSSLRSEDTAVYYCARGRPAMDYWGQGTLVTVSSASTKGPSVFPLAPSSKSTSGGTAALGCLVKDYFPEPVTVSWNSGALTSGVHTFPAVLQSSGLYSLSSVVTVPSSSLGTQTYICNVNHKPSNTKVDKKVEPKSCHHHHHH", "values": [
      {"measurement": "HisTag MFI Ratio (background 0.4)", "setting": "nfP2X7 CAR 1 [1]", "result": 3},
      {"measurement": "MFI HisTag FITC", "setting": "CD33 [2]", "result": 5.55},
      {"measurement": "MFIR HisTag FITC", "setting": "CD33 [3]", "result": 8.28},
      {"measurement": "MFI HisTag FITC in EGFR+ Population", "setting": "nfP2X7 CAR 1 [4]", "result": 1.2},
      {"measurement": "HisTag MFI Ratio of EGFR+/EGFR-", "setting": "nfP2X7 CAR 1 [5]", "result": 2.8}
    ]},
    {"binder": "CD33 BRIDGE variant B28 (Fab, Lintuzumab-based Fab bridging molecule) light: DFPGHNYTTRNILPGLNITSTFHKTSGSGKEPKSSDKTHTGSDIQMTQSPSSLSASVGDRVTITCRASESVDNYGISFMNWFQQKPGKAPKLLIYAASNQGSGVPSRFSGSGSGTDFTLTISSLQPDDFATYYCQQSKEVPWTFGQGTKVEIKRTVAAPSVFIFPPSDEQLKSGTASVVCLLNNFYPREAKVQWKVDNALQSGNSQESVTEQDSKDSTYSLSSTLTLSKADYEKHKVYACEVTHQGLSSPVTKSFNRGECHHHHHH heavy: QVQLVQSGAEVKKPGSSVKVSCKASGYTFTDYNMHWVRQAPGQGLEWIGYIYPYNGGTGYNQKFKSKATITADESTNTAYMELSSLRSEDTAVYYCARGRPAMDYWGQGTLVTVSSASTKGPSVFPLAPSSKSTSGGTAALGCLVKDYFPEPVTVSWNSGALTSGVHTFPAVLQSSGLYSLSSVVTVPSSSLGTQTYICNVNHKPSNTKVDKKVEPKSCHHHHHH", "values": [
      {"measurement": "HisTag MFI Ratio (background 0.4)", "setting": "nfP2X7 CAR 1 [1]", "result": 4},
      {"measurement": "MFI HisTag FITC", "setting": "CD33 [2]", "result": 6.33},
      {"measurement": "MFIR HisTag FITC", "setting": "CD33 [3]", "result": 9.45},
      {"measurement": "MFI HisTag FITC in EGFR+ Population", "setting": "nfP2X7 CAR 1 [4]", "result": 1.58},
      {"measurement": "HisTag MFI Ratio of EGFR+/EGFR-", "setting": "nfP2X7 CAR 1 [5]", "result": 3.2}
    ]}
  ]
}
